Data: the supplement of paper PMC10724198
± gives the standard deviation of the averaged measurements.

What was measured:
[1] = tested on: Saccharomyces cerevisiae; assay: protein stability index of tFT-peptide fusion (C-terminal peptide) (PSI (0-1 scale)); higher = more stable (slower turnover)
Procedure: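 MPS profiling in S. cerevisiae of the tFT-X12 degron library: putative degron peptides plus stable controls, 12 aa, fused to the C-terminus of a sfGFP-mCherry timer. Cells are FACS-sorted into 8 mCherry/sfGFP bins and deep-sequenced. PSI runs from 0 (unstable) to 1 (stable). Backgrounds are wild type, das1Δ and doa10Δ at 30 °C, and wild type, das1Δ, cdc34-1 and cdc53-1 at 37 °C; 2-3 technical replicates each.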

[2] = tested on: Saccharomyces cerevisiae; assay: as above; conditions: genetic background: wild type; temperature: 30 C
[3] = genetic background: cdc34-1, temperature: 37 C
[4] = genetic background: cdc53-1, temperature: 37 C
[5] = genetic background: das1 deletion, temperature: 30 C
[6] = genetic background: das1 deletion, temperature: 37 C
[7] = genetic background: doa10 deletion, temperature: 30 C
[8] = genetic background: wild type, temperature: 30 C
[9] = genetic background: wild type, temperature: 37 C
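Also: PSI is a weighted mean of sequencing reads over stability bins, variants kept only with over 10 reads, mCherry proximal and sfGFP distal, peptide attached via GGGS linker.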

Sequence | protein stability index [1, 3] | protein stability index [1, 4] | protein stability index [1, 5] | protein stability index [1, 6] | protein stability index [1, 7] | protein stability index [1, 8] | protein stability index [1, 9] | protein stability index [2]
GPPPAPSPTPSP | 0.661 ± 0.035 | 0.7253 ± 0.0049 | 0.676 ± 0.021 | 0.7217 ± 0.0055 | 0.685 ± 0.014 | 0.687 ± 0.015 | 0.699 ± 0.02 | 0.732 ± 0.023
GPTLLVSRIAVI | 0.506 ± 0.026 | 0.517 ± 0.024 | 0.368 ± 0.039 | 0.565 ± 0.011 | 0.137 ± 0.0051 | 0.162 ± 0.021 | 0.291 ± 0.015 | 0.249 ± 0.011
GQLIYQHIFILG | 0.662 ± 0.063 | 0.6481 ± 0.0016 | 0.47 ± 0.011 | 0.676 ± 0.025 | 0.312 ± 0.021 | 0.353 ± 0.021 | 0.5677 ± 0.0052 | 0.4678 ± 0.00024
GRPYHLCLFSCF | 0.646 ± 0.018 | 0.754 ± 0.013 | 0.646 ± 0.036 | 0.754 ± 0.024 | 0.333 ± 0.024 | 0.343 ± 0.027 | 0.577 ± 0.016 | 0.353 ± 0.021
GRRLGLLNLLSY | 0.649 ± 0.029 | 0.744 ± 0.0023 | 0.625 ± 0.013 | 0.724 ± 0.019 | 0.255 ± 0.016 | 0.305 ± 0.028 | 0.601 ± 0.027 | 0.456 ± 0.064
GRSVGVTMFKNG | 0.614 ± 0.059 | 0.7332 ± 0.0067 | 0.627 ± 0.017 | 0.73 ± 0.018 | 0.172 ± 0.019 | 0.206 ± 0.014 | 0.479 ± 0.016 | 0.3421 ± 0.0014
GRWLYSACVALN | 0.62 ± 0.072 | 0.71 ± 0.014 | 0.596 ± 0.022 | 0.7063 ± 0.0033 | 0.195 ± 0.0073 | 0.196 ± 0.026 | 0.4027 ± 0.0021 | 0.395 ± 0.017
GSRVICMVVATM | 0.546 ± 0.044 | 0.611 ± 0.016 | 0.463 ± 0.041 | 0.6078 ± 0.0058 | 0.419 ± 0.035 | 0.436 ± 0.02 | 0.582 ± 0.0029 | 0.488 ± 0.022
GTRREFVILYLF | 0.544 ± 0.026 | 0.675 ± 0.027 | 0.525 ± 0.016 | 0.694 ± 0.035 | 0.119 ± 0.0081 | 0.133 ± 0.035 | 0.101 ± 0.019 | 0.191 ± 0.0076
GVFISFFFVFRF | 0.154 ± 0.0055 | 0.173 ± 0.037 | 0.269 ± 0.035 | 0.373 ± 0.013 | 0.354 ± 0.017 | 0.237 ± 0.025 | 0.309 ± 0.033 | 0.308 ± 0.013
GVFRYKLILRKM | 0.527 ± 0.056 | 0.614 ± 0.018 | 0.586 ± 0.015 | 0.634 ± 0.017 | 0.269 ± 0.0066 | 0.272 ± 0.014 | 0.435 ± 0.012 | 0.337 ± 0.05
GVLHSKGPWFSG | 0.703 ± 0.028 | 0.757 ± 0.0099 | 0.652 ± 0.0073 | 0.75 ± 0.0095 | 0.65 ± 0.014 | 0.665 ± 0.014 | 0.72815 ± 0.0004 | 0.729 ± 0.017
GVLLLGSYQWVG | 0.306 ± 0.031 | 0.394 ± 0.021 | 0.368 ± 0.029 | 0.334 ± 0.0053 | 0.395 ± 0.008 | 0.373 ± 0.025 | 0.317 ± 0.0059 | 0.313 ± 0.007
GVWLRAVRGFGV | 0.706 ± 0.03 | 0.7586 ± 0.0013 | 0.646 ± 0.013 | 0.76107 ± 0.00069 | 0.652 ± 0.0083 | 0.6542 ± 0.0058 | 0.7403 ± 0.0064 | 0.738 ± 0.04
GWCLGFWCLLVC | 0.0399 ± 0.0089 | 0.0444 ± 0.0049 | 0.123 ± 0.02 | 0.156 ± 0.019 | 0.0958 ± 0.005 | 0.0537 ± 0.018 | 0.068 ± 0.014 | 0.118 ± 0.093
GWVVWLTGCLVF | 0.512 ± 0.028 | 0.592 ± 0.014 | 0.446 ± 0.022 | 0.586 ± 0.042 | 0.407 ± 0.0086 | 0.443 ± 0.017 | 0.621 ± 0.028 | 0.4592 ± 0.0025
GYRGRITRLVNG | 0.661 ± 0.03 | 0.715 ± 0.015 | 0.639 ± 0.0079 | 0.7422 ± 0.00086 | 0.14 ± 0.024 | 0.168 ± 0.021 | 0.369 ± 0.00097 | 0.29 ± 0.035
GYRYMWLWRLSA | 0.544 ± 0.027 | 0.706 ± 0.026 | 0.665 ± 0.036 | 0.762 ± 0.028 | 0.148 ± 0.0028 | 0.143 ± 0.032 | 0.235 ± 0.013 | 0.178 ± 0.095
HCLGWCFSRLSS | 0.654 ± 0.043 | 0.7199 ± 0.00078 | 0.653 ± 0.021 | 0.766 ± 0.0092 | 0.186 ± 0.013 | 0.206 ± 0.027 | 0.4302 ± 0.0015 | 0.289 ± 0.012
HIVYCSSEQIKC | 0.53 ± 0.048 | 0.6419 ± 0.0016 | 0.446 ± 0.026 | 0.589 ± 0.0063 | 0.482 ± 0.028 | 0.483 ± 0.029 | 0.56 ± 0.032 | 0.497 ± 0.0059

Sequence | protein stability index [1, 3] | protein stability index [1, 4] | protein stability index [1, 5] | protein stability index [1, 6] | protein stability index [1, 7] | protein stability index [1, 8] | protein stability index [1, 9] | protein stability index [2]
HLLMLAMVGFQC | 0.5752 ± 0.0029 | 0.688 ± 0.0015 | 0.475 ± 0.038 | 0.619 ± 0.02 | 0.424 ± 0.0061 | 0.454 ± 0.022 | 0.583 ± 0.025 | 0.487 ± 0.017
HVLGSIYWAIFV | 0.497 ± 0.02 | 0.493 ± 0.028 | 0.407 ± 0.024 | 0.563 ± 0.023 | 0.289 ± 0.0029 | 0.314 ± 0.03 | 0.499 ± 0.011 | 0.428 ± 0.011
IGFFFACFFSVF | 0.419 ± 0.057 | 0.444 ± 0.012 | 0.403 ± 0.021 | 0.518 ± 0.0099 | 0.352 ± 0.0041 | 0.363 ± 0.022 | 0.43 ± 0.019 | 0.442 ± 0.065
IGWKLNRIQKNI | 0.6858 ± 0.0052 | 0.735 ± 0.043 | 0.649 ± 0.028 | 0.728 ± 0.047 | 0.15 ± 0.021 | 0.193 ± 0.029 | 0.436 ± 0.011 | 0.326 ± 0.021
IGYLGSELRFVS | 0.688 ± 0.094 | 0.741 ± 0.011 | 0.626 ± 0.0078 | 0.762 ± 0.018 | 0.384 ± 0.017 | 0.434 ± 0.04 | 0.69 ± 0.012 | 0.514 ± 0.037
IISICLYFLVRC | 0.223 ± 0.003 | 0.326 ± 0.073 | 0.229 ± 0.027 | 0.391 ± 0.0067 | 0.212 ± 0.0074 | 0.212 ± 0.015 | 0.327 ± 0.0058 | 0.299 ± 0.045
IKKKKRKKIKAN | 0.634 ± 0.048 | 0.728 ± 0.019 | 0.65 ± 0.024 | 0.751 ± 0.015 | 0.199 ± 0.013 | 0.211 ± 0.017 | 0.291 ± 0.021 | 0.244 ± 0.043
IKWRCLFCVCVL | 0.477 ± 0.011 | 0.466 ± 0.012 | 0.429 ± 0.026 | 0.489 ± 0.0054 | 0.371 ± 0.0045 | 0.375 ± 0.014 | 0.453 ± 0.008 | 0.422 ± 0.043
ILFRRRLCCFLK | 0.349 ± 0.03 | 0.434 ± 0.0052 | 0.443 ± 0.019 | 0.536 ± 0.012 | 0.506 ± 0.021 | 0.396 ± 0.018 | 0.484 ± 0.021 | 0.4735 ± 0.0015
ILLHSFFSFYLL | 0.484 ± 0.0054 | 0.503 ± 0.0068 | 0.508 ± 0.027 | 0.5933 ± 0.0054 | 0.289 ± 0.009 | 0.269 ± 0.023 | 0.419 ± 0.006 | 0.30744 ± 1.3e-05
ILLYCVLIDPYS | 0.203 ± 0.008 | 0.2634 ± 0.0013 | 0.221 ± 0.043 | 0.352 ± 0.0093 | 0.219 ± 0.011 | 0.229 ± 0.025 | 0.361 ± 0.057 | 0.344 ± 0.032
ILVLKFLRLLSA | 0.525 ± 0.015 | 0.555 ± 0.024 | 0.444 ± 0.034 | 0.563 ± 0.012 | 0.343 ± 0.017 | 0.365 ± 0.028 | 0.5261 ± 0.0015 | 0.448 ± 0.031
ISPCLVRLWYRI | 0.462 ± 0.053 | 0.574 ± 0.021 | 0.544 ± 0.018 | 0.673 ± 0.019 | 0.103 ± 0.028 | 0.102 ± 0.037 | 0.168 ± 0.026 | 0.175 ± 0.033
IVCYFFAFSFMW | 0.288 ± 0.014 | 0.399 ± 0.058 | 0.293 ± 0.028 | 0.462 ± 0.0081 | 0.2859 ± 0.0019 | 0.288 ± 0.025 | 0.425 ± 0.024 | 0.362 ± 0.0046
IVEVNCILMWIF | 0.423 ± 0.024 | 0.489 ± 0.026 | 0.365 ± 0.021 | 0.532 ± 0.029 | 0.345 ± 0.037 | 0.369 ± 0.041 | 0.469 ± 0.044 | 0.4398 ± 0.00029
IVGVLAVLVRPV | 0.484 ± 0.029 | 0.561 ± 0.019 | 0.369 ± 0.03 | 0.5371 ± 0.0051 | 0.34 ± 0.011 | 0.376 ± 0.023 | 0.51 ± 0.017 | 0.466 ± 0.023
IVIFQTAYVVRI | 0.159 ± 0.0011 | 0.233 ± 0.013 | 0.164 ± 0.011 | 0.238 ± 0.012 | 0.225 ± 0.034 | 0.173 ± 0.0086 | 0.234 ± 0.01 | 0.213 ± 0.0041
IVVVVRLSPILG | 0.293 ± 0.016 | 0.397 ± 0.099 | 0.27 ± 0.015 | 0.4272 ± 0.003 | 0.228 ± 0.013 | 0.274 ± 0.016 | 0.401 ± 0.011 | 0.331 ± 0.034
IWIHSVGVECTS | 0.487 ± 0.011 | 0.494 ± 0.033 | 0.359 ± 0.036 | 0.544 ± 0.0068 | 0.315 ± 0.0044 | 0.358 ± 0.032 | 0.5186 ± 0.005 | 0.486 ± 0.019
